Results on 3 molecules are retold here after patent US20220073599A1 (Hoffmann-La Roche, published 2022).

In test [1] the target is T1, human Ang2-RBD (human, UniProt O15123 275-496, limits assumed).
T1 construct: also called Human ANG2 (SPR); Angiopoietin 2-RBD
T1 sequence: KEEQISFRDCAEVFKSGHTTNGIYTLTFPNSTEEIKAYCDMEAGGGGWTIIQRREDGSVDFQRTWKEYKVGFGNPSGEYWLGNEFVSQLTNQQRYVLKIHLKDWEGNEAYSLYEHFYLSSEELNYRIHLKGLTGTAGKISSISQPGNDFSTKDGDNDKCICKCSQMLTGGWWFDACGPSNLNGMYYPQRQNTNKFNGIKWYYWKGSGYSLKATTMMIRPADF
Kind of test: SPR, Fab captured by anti-Fab antibody; 2) Ang2-RBD alone, then buffer; final signal in % of the sum of the single signals. The method, then: (§1) The bispecific Fab was captured by injecting a 6.5 μg/ml solution for 60 sec at a flow of 5 μl/min. Independent binding of each ligand to the bispecific Fab was analysed by determining the active binding capacity for each ligand, either added sequentially or simultaneously (flow of 10 μl/min): [0359] […] [0360] 2) Injection of human Ang2 with a concentration of 5 μg/ml for 60 sec (identifies single binding of the antigen) [0361] […] [0362] […] [0363]
(§2) Independent binding of candidate antibodies to human VEGF-A and human ANG2 was analysed by SPR as described above in the “Materials & general methods” section.
(In general: Surface plasmon resonance follows binding to a sensor surface in real time, without labels.)

The target of test [2] is T2, human VEGFA-121 (human, UniProt P15692 181-395).
T2 construct: sources differ (in-house, R&D, Peprotech); also called hVEGF-A121
T2 sequence: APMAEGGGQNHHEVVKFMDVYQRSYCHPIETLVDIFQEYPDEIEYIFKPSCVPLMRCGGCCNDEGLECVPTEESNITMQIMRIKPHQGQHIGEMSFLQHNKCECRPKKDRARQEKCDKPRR
The experiment in a line: SPR, Fab captured by anti-Fab antibody; 1) VEGFA-121 alone, then buffer; final signal in % of the sum of the single signals. The protocol: as §1, §2

Test [3] concerns the target T2, human VEGFA-121. The experiment in a line: cell-based or functional assay.
Test [4] deals with T3, human VEGFA-121-His (human, UniProt P15692 181-395).
T3 construct: Prepared in-house; not shown: His tag
T3 sequence: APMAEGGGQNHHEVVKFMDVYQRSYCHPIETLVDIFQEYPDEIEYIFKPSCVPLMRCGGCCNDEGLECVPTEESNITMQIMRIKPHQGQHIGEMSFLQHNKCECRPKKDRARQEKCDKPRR
Kind of test: SPR, VEGF-A121-His captured by anti-His antibody, Fab injected, single cycle kinetics; marked outside of Biacore specification. The method, then:
An anti-His capturing antibody (GE Healthcare 28995056) was immobilized to a Series S Sensor Chip C1 (GE Healthcare BR100535) using standard amine coupling chemistry resulting in a surface density of approximately 600 resonance units (RU). As running and dilution buffer, HBS-P+ (10 mM HEPES, 150 mM NaCl pH 7.4, 0.05% Surfactant P20) was used. […] A dilution series of the tested antibody (3.7-300 nM, 1:3 dilution) was successively injected for 60 s each, dissociation was monitored for 3600 s at a flow rate of 30 μl/min (single cycle kinetics). The surface was regenerated by injecting 10 mM Glycine pH 1.5 for 60 s at a flow of 5 μl/min. […] Curve fitting was performed using the 1:1 Langmuir binding model within the Biacore® evaluation software.
(§3) Binding kinetics to human VEGF-A and human ANG2 for the candidate antibodies were assessed as described above using the indicated Fab fragments (amino acid sequence as illustrated in Table 4).

The next test deals with T4, ANG2 (human, UniProt O15123 19-496, limits assumed).
T4 sequence: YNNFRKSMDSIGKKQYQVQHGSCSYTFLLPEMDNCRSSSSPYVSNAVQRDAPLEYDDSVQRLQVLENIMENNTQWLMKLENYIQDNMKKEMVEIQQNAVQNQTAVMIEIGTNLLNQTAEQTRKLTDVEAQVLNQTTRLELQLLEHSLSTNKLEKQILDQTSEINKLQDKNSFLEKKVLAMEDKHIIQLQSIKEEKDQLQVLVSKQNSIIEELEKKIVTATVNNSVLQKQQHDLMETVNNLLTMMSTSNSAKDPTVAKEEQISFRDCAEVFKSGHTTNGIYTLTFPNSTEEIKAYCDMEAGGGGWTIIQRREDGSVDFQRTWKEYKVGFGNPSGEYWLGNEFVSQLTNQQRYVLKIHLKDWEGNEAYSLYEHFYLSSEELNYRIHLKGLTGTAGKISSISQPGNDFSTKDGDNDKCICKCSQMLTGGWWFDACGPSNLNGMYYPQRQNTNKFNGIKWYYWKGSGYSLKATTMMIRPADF
Kind of test: cell-based or functional assay.

Test [5] concerns the target T3, human VEGFA-121-His. The experiment in a line: KinExA equilibrium titration in solution, constant VEGFA-121-His. The protocol: All KinExA® experiments were performed at room temperature (RT) using PBS pH 7.4 with 0.01% BSA and 0.01% Tween® 20 (BioRad, #161-0781) as running buffer. […] A flow rate of 0.25 ml/min was used. […] Antigen-antibody complexes were incubated at RT for at least 8 h to allow equilibrium to be reached. […] Each sample was measured in duplicates for all equilibrium experiments. The KD was obtained from non-linear regression analysis of the data using a one-site homogeneous binding model contained within the KinExA® software (Version 4.0.11) using the “standard analysis” method. The software calculates the KD and determines the 95% confidence interval by fitting the data points to a theoretical KD curve. The 95% confidence interval is given as KD low and KD high.
as §3
A general note: A kinetic exclusion assay measures how much of one partner remains free in solution.

Test [6] has as its target T1, human Ang2-RBD. The experiment in a line: SPR, Fab captured by anti-Fab antibody, Ang2-RBD injected, 25 C, 1:1 fit. The protocol:
An anti-Fab capturing antibody (GE Healthcare 28958325) was immobilized to a Series S Sensor Chip C1 (GE Healthcare BR100535) using standard amine coupling chemistry resulting in a surface density of approximately 800 resonance units (RU). As running and dilution buffer, HBS-P+ (10 mM HEPES, 150 mM NaCl pH 7.4, 0.05% Surfactant P20) was used, the temperature of measurement was 25° C. The tested antibody was captured by injecting a 50 nM solution for 60 sec at a flow of 5 μl/min. Association was measured by injection of human Ang2-RBD in various concentrations in solution for 180 sec at a flow of 30 μl/min (0.07 nM-50 nM, 1:3 dilution). The dissociation phase was monitored for up to 900 sec and triggered by switching from the sample solution to running buffer at a flow rate of 30 μl/min. The surface was regenerated by injection of 10 mM Glycine pH 2.1 for 60 s at a flow rate of 30 μl/min. Bulk refractive index differences were corrected by subtracting blank injections and by subtracting the response obtained from the reference flow cell without captured tested antibody. Curve fitting was performed using the 1:1 Langmuir binding model within the Biacore® evaluation software.
as §3

What is called Kd is the equilibrium constant for the complex coming apart. A high value points to a looser complex. By koff is commonly meant the first-order rate constant of dissociation. A high value points to fast dissociation. One may read the kon as a measure of how fast the partners come together.

B1: bispecific anti-VEGF-A/anti-ANG2 Fab fragment P1AA0902 (Fab, V domains shown)
VH: DDHLVESGGGLVKPGGSLRLSCATADFFEYDDMSWVRQAPGKGLEWVGSISGRGDHKYLNTKFIGRFTISRDDSKNTLYLQMNSLRAEDTAVYYCARDVGFFDWWGQGTLVTVSS
VL: AIYMHQEPSSLSASVGDRVTITCHGSYWLNSELAWYQQKPGKAPKLLIFDGDFKVFDVPSRFSGSGSHEDYTLTISSLQPEDFATYYCQQYRYHPYTFGHGTKVEIKR
notes: Bispecific Fab with two paratopes in one VH/VL pair
In the case of B1, the “Signal [%]” value in the test with human Ang2-RBD [1] and with human VEGFA-121 [2] was 50% each time. Further, the “IC50, Reporter Gene Assay (Hek_NFAT_KDR_Luc cells stimulated with VEGF-A121, luminescence)” value with human VEGFA-121 [3] came out at 1.09 nM. For the same molecule, the Kd in the test with human VEGFA-121-His [4] stood at 0.011 nM; with human VEGFA-121-His [5] it was 0.0114 nM; with human Ang2-RBD [6], 0.019 nM. Further, the values for the koff with human VEGFA-121-His [4] and with human Ang2-RBD [6] were 8.27e-06 s⁻¹ and 0.000106 s⁻¹, respectively. Moreover, the “IC50, pTie2-Assay (Tie2 phosphorylation in Hek293 cells expressing Tie2, stimulated with Ang-2)” value with ANG2 is 7 nM. The same molecule registered an association rate constant (kon) in the test with human Ang2-RBD [6] of 5.51e+06 M⁻¹ s⁻¹.

B2: bispecific anti-VEGF-A/anti-ANG2 Fab fragment P1AA8906 (Fab, V domains shown)
VH: DFQLVESGGGLVKPGGSLRLSCAASYEFEYDDMSWVRQAPGKGLEWVGSISPKGGSTYYNTKFIGRFTISRDNSKNTLYLQMNSLRAEDTAVYYCARDVGFFDMWGQGTLVTVSS
VL: AIYMHQEPSSLSASVGDRVTITCHGSYWLSNYLAWYQQKPGKAPKLLIFDARWLVHGVPSRFSGSGSHEDYTLTISSLQPEDFATYYCQQYRYHPYTFGHGTKVEIKR
notes: Bispecific Fab with two paratopes in one VH/VL pair (DutaFab); CH1 and Ckappa
For B2, the “Signal [%]” value in the test with human Ang2-RBD [1] and with human VEGFA-121 [2] was 50% in each case. The Kd with human VEGFA-121-His [4] turned out to be 0.003 nM; with human VEGFA-121-His [5], 0.0109 nM; with human Ang2-RBD [6], 4.55 nM. Besides, the results for the koff with human VEGFA-121-His [4] and with human Ang2-RBD [6] were 4.53e-06 s⁻¹ and 0.032 s⁻¹, respectively. The molecule further yielded a kon with human Ang2-RBD [6] of 7.03e+06 M⁻¹ s⁻¹.

B3: bispecific anti-VEGF-A/anti-ANG2 Fab fragment P1AD9820 (Fab, V domains shown)
VH: SEHLVESGGGLVKPGGSLRLSCATADFFEYDDMSWVRQAPGKGLEWVGSISPKGDHKYLNTKFIGRFTISRDDSKNTLYLQMNSLRAEDTAVYYCARDVGFFDWWGQGTLVTVSS
VL: AIYMHQEPSSLSASVGDRVTITCHGSYWLNSEVAWYQQKPGKAPKLLIFDGDFKVYEVPSRFSGSGSHEDYTLTISSLQPEDFATYYCQQYRYHPYTFGHGTKVEIKR
notes: Bispecific Fab with two paratopes in one VH/VL pair; also called P1AD9820 Fab
Turning to B3, the “Signal [%]” value in the test with human Ang2-RBD [1] and with human VEGFA-121 [2] was 50% in each case. Further, the “IC50, Reporter Gene Assay (Hek_NFAT_KDR_Luc cells stimulated with VEGF-A121, luminescence)” value with human VEGFA-121 [3] came out at 1.07 nM. The dissociation constant (Kd) in the test with human VEGFA-121-His [4] came to 0.008 nM; with human VEGFA-121-His [5], 0.00385 nM; with human Ang2-RBD [6] it was 0.008 nM. For the same molecule, in the test with ANG2, the “IC50, pTie2-Assay (Tie2 phosphorylation in Hek293 cells expressing Tie2, stimulated with Ang-2)” value was 10 nM. Further, in the test with human Ang2-RBD [6], the koff was 5.78e-05 s⁻¹. The kon with human Ang2-RBD [6] was 7.43e+06 M⁻¹ s⁻¹.
